B1: YGR037C (protein, UniProt P31787 1-87, looked up)
Acyl-CoA-binding protein: MVSQLFEEKAKAVNELPTKPSTDELLELYALYKQATVGDNDKEKPGIFNMKDRYKWEAWENLKGKSQEDAEKEYIALVDQLIAKYSS
B2: YIL095W (protein, UniProt P40494 1-810, looked up)
Actin-regulating kinase PRK1: MNTPQISLYEPGTILTVGSHHAKIIKYLTSGGFAQVYTAEISPPDPYSNANIACLKRVIVPHKQGLNTLRAEVDAMKLLRNNKHVVSYIDSHAARSVNGIAYEVFVLMEFCERGGLIDFMNTRLQNRLQESEILEIMSQTVQGITAMHALQPPLIHRDIKIENVLISHDGLYKVCDFGSVSGVIRPPRNTQEFNYVQHDILTNTTAQYRSPEMIDLYRGLPIDEKSDIWALGVFLYKICYYTTPFEKSGEAGILHARYQYPSFPQYSDRLKNLIRLMLMEAPSQRPNICQVLEEVSRLQNKPCPIRNFYLLRAMNQNANTQLAGEPSSTTYVPTQKFIPVQSLQSINQPPNMMPVTHVSTTPNLGTFPISINDNNKTEVTAHAGLQVGSHSNLTSPLMKTKSVPLSDEFASLYYKELHPFQKSQTFKSVESFQSPQRKSMPPLSLTPVNNDIFDRVSAINRPNNYVDSETQTIDNMAVPNLKLSPTITSKSLSSTKEIAAPDNINGSKIVRSLSSKLKKVITGESRGNSPIKSRQNTGDSIRSAFGKLRHGFTGNSVNNSRSASFDNNNVNGNGNNTNRRLVSSSTSSFPKFNSDTKRKEESDKNQRLEKRRSMPPSILSDFDQHERNNSRTGSRDYYRSHSPVKKTQASAKTTSKPTLIPDNGNVNINQEKKESIQRRVHNLLKSSDDPVTYKSASGYGKYTDIGTETSNRHSSVRITPITEEKFKKTLKDGVLDIKTKSNGKDKSRPPRPPPKPLHLRTEIQKIRNFSRLQSKKLPIERISSEATETIVDVNVDDLEADFRKRFPSKV
B3: YJL201W (protein, UniProt P32525 1-599, looked up)
Protein ECM25: MIDINVNNIFFRSYSVDPNSGHAIYVFDSTYLPASDEIGDKQVYDLLINALMDRLVMKLPQAPYSLVIFSSGFSQRKISWVYGIKMFAKLPKETKFYLQKIFIVHESFFVRSVYQVISNAMNFNFLDSKDSQHDFPSLVHVLDLTSLSELIDITRLRISLNVYLYDYQIREHINVPEEYYNRLTPLAIRQYRQLVFDKIFKKLQNDALLCELIFQKPGNYKKVNIFLDIIKRNNYIDLSQWDIYSLASVWLNYFIKNKAKPLIPIELIPLPIVDDLKFTSETFRKIIKFNQYQDLFMVIIPFFNRIIAHGESTKHDSRTLSKALTPALCKEKLSMMTNDRLAIGSRYIKNLLDFFPEIAKEISSPPSSVSSSSTIPVLPKPRKSSPTRYSELGCLTLPRSRSPSPQRSVTSPTYTPVALQNTPVLKPKSSSRNVSSPSFNAKPPLPIKAVTRPQLSLTSNSNTDLALASSSTDTLSSPTKTPSADSLPLSNSSTDLTISDNIKEMVKDEPAKDKNSVETDIFVQQFESLTLVQNAKIKKFDKELQEKKKKNETTSKTADKFSQKGYSDIKASNKVSRLAALYEERLQGLQVMNEMKQRW
B4: YKR001C (protein, UniProt P21576 1-704, looked up)
Vacuolar protein …: MDEHLISTINKLQDALAPLGGGSQSPIDLPQITVVGSQSSGKSSVLENIVGRDFLPRGTGIVTRRPLVLQLINRRPKKSEHAKVNQTANELIDLNINDDDKKKDESGKHQNEGQSEDNKEEWGEFLHLPGKKFYNFDEIRKEIVKETDKVTGANSGISSVPINLRIYSPHVLTLTLVDLPGLTKVPVGDQPPDIERQIKDMLLKYISKPNAIILSVNAANTDLANSDGLKLAREVDPEGTRTIGVLTKVDLMDQGTDVIDILAGRVIPLRYGYIPVINRGQKDIEHKKTIREALENERKFFENHPSYSSKAHYCGTPYLAKKLNSILLHHIRQTLPEIKAKIEATLKKYQNELINLGPETMDSASSVVLSMITDFSNEYAGILDGEAKELSSQELSGGARISYVFHETFKNGVDSLDPFDQIKDSDIRTIMYNSSGSAPSLFVGTEAFEVLVKQQIRRFEEPSLRLVTLVFDELVRMLKQIISQPKYSRYPALREAISNQFIQFLKDATIPTNEFVVDIIKAEQTYINTAHPDLLKGSQAMVMVEEKLHPRQVAVDPKTGKPLPTQPSSSKAPVMEEKSGFFGGFFSTKNKKKLAALESPPPVLKATGQMTERETMETEVIKLLISSYFSIVKRTIADIIPKALMLKLIVKSKTDIQKVLLEKLYGKQDIEELTKENDITIQRRKECKKMVEILRNASQIVSSV
B5: YLR206W (protein, UniProt Q05785 1-613, looked up)
Epsin-2: MSKQFVRSAKNMMKGYSSTQVLVRDATANDSRTPSIDTLDDLAQRSYDSVDFFEIMDMLDKRLNDKGKYWRHVAKSLTVLDYLVRFGSENCVLWCRENFYVIKTLREFRHENESGFDEGQIIRVKAKELVSLLNDEERLREERSMNTRNRRANRAARPRPRRQRTRSNPHDSSPSYQDDLEKALEESRITAQEDEQRRRELAQYDDEDPDFQAALQLSKEEEELKQLQELQRLQKQQQSLSQFQAPLQQQQPQQQPAYYDIFGNPISQDEYLQYQYQQDQEQAMAQQRWLDQQQEQQQLAEQQYFQQQQQAAAAASALQQQQTAANMQQQQQQPADFQQPLPTGSNNPFSMDNLERQKQEQQHAQLQRQQEEARQQQEQLKLQQLQRQQQEEAQLHQKRQEEAQLQQQQAQLLQQQAQFQQQQPLKQTRTGNQSISDKYSDLNTLLATGTGIDTFGNTGEARIPAQHTKTGTFINSQGTGYKQVTNEPKNNPFLSNQYTGLPSTNIVPTQTGYGFGNQPQSPPTNSPQQNPTGISYSQPQQQQQPQQQPQYMQNFQQQQPQYAQNFQQQPQYTQNYQQQPQYIQPHQQQQQQQQQQQQQQGYTPDQGVSLIDL

These molecules were tested on ABP1 (assay: DHFR-PCA on solid medium, bait ABP1 (Fig. 1B)). Conditions: bait ABP1, label = prey; 2-4 replicates.
Format: cell-based, Saccharomyces cerevisiae
Excerpt: Supplement 41467_2021_21873_MOESM8_ESM.xlsx, sheet "Fig1B" | column: medsize; medrep; Ratio; Score
For B1, the “medrep (log2 median colony size normalized to plate background, PCA score)” value was 3.115.
For B2, the “medrep (log2 median colony size normalized to plate background, PCA score)” value was 4.25.
In the case of B3, the “medrep (log2 median colony size normalized to plate background, PCA score)” value is reported as 3.816.
In the case of B4, the “medrep (log2 median colony size normalized to plate background, PCA score)” value is reported as 2.787.
With B5 the “medrep (log2 median colony size normalized to plate background, PCA score)” value was 2.696.

These molecules were tested on 575 putative partners (preys) of 22 WT SH3-containing proteins (assay: DHFR-PCA on solid medium, WT and SH3-deleted baits (Fig. 1B)). Conditions: bait SLA1-2, DHFR-PCA, label = prey; Replicates 4 (2 for YCR009C, YDR388W).
Format: cell-based, Saccharomyces cerevisiae
Set-up: key to Score: 0: SH3-independent; 1: SH3-dependent PPIs; 2: SH3-inhibited PPIs
Excerpt: To assess the requirement of SH3 domains for PPIs in vivo, we first measured binary interactions between 22 WT SH3-containing proteins (Supplementary Fig. 1A) as baits and 575 putative partners from their interconnected signaling networks using the dihydrofolate reductase protein–fragment complementation assay (DHFR-PCA) in the budding yeast Saccharomyces cerevisiae. About 33% (202/607) of the PPIs detected were described before, mostly by direct methods (Supplementary Fig. 1B, C)[11]. We repeated the experiments with baits in which the SH3s were individually replaced with a flexible linker by genome editing (SH3 domain deletion/stuffing, Fig. 1A). The stuffer DNA sequence ([…]) codes for a small flexible poly-Gly with Ser peptide ([…]) that is inspired by previous experiments[12],[13]. About a third of the SH3-containing protein interactome is qualitatively or quantitatively SH3-dependent (171 PPIs out of 607, Fig. 1B and Supplementary Fig. 1B, C). We validated the vast majority of the quantitative changes in low-throughput experiments and excluded that this is simply due to changes in protein abundance in most cases (Supplementary Fig. 1D–G). SH3-binding motifs[14] are more frequent in the SH3-dependent PPI partners when compared to sequences from random proteins, SH3-independent PPI partners or PPI partners that are stronger or gained following SH3 deletions (p values = 1.5 × 10^−17, 0.0038 and 2.1 × 10^−08, respectively; Mann–Whitney test, one-tailed, Fig. 1C). The changes we measure are therefore enriched for PPIs that depend on the direct interactions of the domains with the PPI partners.
The complete list of strains, primers, and gRNAs used in this study can be found in Supplementary Tables 1–3. All constructed yeast strains were validated by polymerase chain reaction (PCR) and confirmed by Sanger sequencing of the locus of interest. Bait strains for the DHFR-PCA experiments were constructed as follows. The genes of interest were fused at their genomic 3′ end by replacing the stop codon with a linker ([…]), the DHFR F[1,2] followed by a smaller linker (GGGGS), a 1× FLAG tag ([…]) and the NATMX4 resistance cassette via homologous recombination (all amplified from pAG25-DHFR[1,2]-linker-FLAG). The set of 615 prey strains (DHFR F[3] fusions in the BY4742 background) were retrieved from the Yeast Protein Interactome Collection[43] with the exception of 73 that were reconstructed (Supplementary Tables 1 and 2). Knockout strains were taken from the yeast knockout collection except for ABP1, BEM1, BZZ1, and SLA1, which were reconstructed by replacing the ORFs with the NATMX4 resistance cassette by homologous recombination in the BY4741 background.
Yeast SH3 domain genomic sequences were replaced by CRISPR–Cas9 genome editing. Each SH3 domain (as defined by the SMART database V8.0 except for Ysc84 SH3 (as defined by PROSITE), see Source Data for all SH3 sequences and Supplementary Table 1 for primers used) was specifically targeted by one gRNA[46]. Yeast competent cells were co-transformed with a pCAS plasmid (Addgene plasmid 60847[47]) expressing both the gRNA of interest and Streptococcus pyogenes Cas9[46] and a donor DNA sequence (stuffer) with 60 bp homology arms surrounding the SH3 DNA sequence. The Stuffer DNA was either PCR amplified or digested from a plasmid. The stuffer DNA sequence ([…]) codes for a small flexible linker ([…]) inspired by protein linkers used in structural biology[12],[13]. This type of linker is frequently used for fusing proteins without affecting the structure of the linked proteins.
The overall DHFR-PCA pipeline is based on Tarassov et al.[43] and the procedures have also been published as a visualized protocol. The screens were performed with robotically manipulated pin tools (BM5-SC1, S&P Robotics Inc.). First, the preys were cherry-picked from 96-well plates to omnitrays in a 384 format on YPD + HPH solid media. […]
In the case of B1, the “medrep (log2 median colony size normalized to plate background, PCA score)” value is reported as 1.385.
For B2, the “medrep (log2 median colony size normalized to plate background, PCA score)” value was 1.8519.
With B3 the “medrep (log2 median colony size normalized to plate background, PCA score)” value was 1.384.
B4 was tested, and the “medrep (log2 median colony size normalized to plate background, PCA score)” value was 1.835.
For B5, the “medrep (log2 median colony size normalized to plate background, PCA score)” value was 2.135.

Same assay, conditions: bait SLA1-2, label = prey
For B1, the Score was 1.
Work on B2 yielded a Score of 1.
With B3 the Score was 1.
B4 was tested, and the Score was 1.
Molecule B5 has a Score of 1.

Same assay, conditions: bait SLA1-2, label = prey; only significant differences shown; PPIs completely lost have a ratio of 0.1, gained PPIs 2.5
In the case of B1, the “Ratio (SH3-deleted/WT medrep)” value is reported as 0.1.
With B2 the “Ratio (SH3-deleted/WT medrep)” value was 0.1.
In the case of B3, the “Ratio (SH3-deleted/WT medrep)” value is reported as 0.1.
For B4, the “Ratio (SH3-deleted/WT medrep)” value was 0.1.
For B5, the “Ratio (SH3-deleted/WT medrep)” value was 0.1.

Same assay, conditions: bait SLA1-3, DHFR-PCA, label = prey; Replicates 4 (2 for YCR009C, YDR388W, YIL033C)
B1 was tested, and the “medrep (log2 median colony size normalized to plate background, PCA score)” value was 1.385.
In the case of B2, the “medrep (log2 median colony size normalized to plate background, PCA score)” value is reported as 1.8519.
B3 was tested, and the “medrep (log2 median colony size normalized to plate background, PCA score)” value was 1.384.
In the case of B4, the “medrep (log2 median colony size normalized to plate background, PCA score)” value is reported as 1.835.
With B5 the “medrep (log2 median colony size normalized to plate background, PCA score)” value was 2.135.

Same assay, conditions: bait SLA1-3, label = prey
With B1 the Score was 1.
Work on B2 yielded a Score of 0.
Molecule B3 has a Score of 0.
B4 was tested, and the Score was 0.
Work on B5 yielded a Score of 0.

Same assay, conditions: bait SLA1-3, label = prey; only significant differences shown; PPIs completely lost have a ratio of 0.1, gained PPIs 2.5
In the case of B1, the “Ratio (SH3-deleted/WT medrep)” value is reported as 0.1.

From PMC7954794, “Protein context shapes the specificity of SH3 domain-mediated interactions in vivo” (Nature Communications, 2021)
